What was measured:
HLA-B*15:03 = assay: IEDB peptide-MHC binding, purified MHC/competitive/radioactivity; filed as Kd, often an IC50 or EC50 that approximates it; ≥ and ≤ were set here for values at or beyond the usual limits of such assays; details: source organism: Vaccinia virus WR
HLA-A*02:01 [1] = assay: IEDB peptide-MHC binding, purified MHC/competitive/fluorescence; ≥ and ≤ were set here for values at or beyond the usual limits of such assays
HLA-A*24:02 = assay: as above
HLA-B*15:01 [2] = assay: as above
HLA-B*44:02 [3] = assay: IEDB peptide-MHC binding, purified MHC/competitive/radioactivity; filed as Kd, often an IC50 or EC50 that approximates it; ≥ and ≤ were set here for values at or beyond the usual limits of such assays
HLA-B*44:03 = assay: as above
HLA-B*18:01 [4] = assay: IEDB peptide-MHC binding, purified MHC/direct/fluorescence; filed as Kd, often an IC50 or EC50 that approximates it; ≥ and ≤ were set here for values at or beyond the usual limits of such assays; details: source organism: Dengue virus
HLA-B*44:02 [5] = assay: as above; details: source organism: Dengue virus
HLA-B*15:01 [6] = assay: IEDB peptide-MHC binding, purified MHC/competitive/radioactivity; filed as Kd, often an IC50 or EC50 that approximates it; ≥ and ≤ were set here for values at or beyond the usual limits of such assays; details: source organism: Vaccinia virus WR
HLA-B*48:01 = assay: IEDB peptide-MHC binding, purified MHC/direct/fluorescence; filed as Kd, often an IC50 or EC50 that approximates it; ≥ and ≤ were set here for values at or beyond the usual limits of such assays
HLA-B*08:01 = assay: IEDB peptide-MHC binding, purified MHC/competitive/radioactivity; filed as Kd, often an IC50 or EC50 that approximates it; ≥ and ≤ were set here for values at or beyond the usual limits of such assays; details: source organism: Vaccinia virus WR
HLA-A*02:01 [7] = assay: IEDB peptide-MHC binding, purified MHC/direct/fluorescence; filed as Kd, often an IC50 or EC50 that approximates it; ≥ and ≤ were set here for values at or beyond the usual limits of such assays; details: source organism: Orthohantavirus andesense
HLA-A*02:19 = assay: as above; details: source organism: Convict Creek 107 virus
HLA-A*03:01 [8] = assay: as above; details: source organism: Convict Creek 107 virus
HLA-A*26:01 = assay: IEDB peptide-MHC binding, purified MHC/competitive/fluorescence; filed as Kd, often an IC50 or EC50 that approximates it; ≥ and ≤ were set here for values at or beyond the usual limits of such assays; details: source organism: Orthohantavirus sinnombreense
HLA-B*15:17 = assay: as above; details: source organism: Orthohantavirus sinnombreense
HLA-B*18:01 [9] = assay: as above; details: source organism: Orthohantavirus sinnombreense
HLA-B*27:03 = assay: as above; details: source organism: Orthohantavirus sinnombreense
HLA-B*39:01 = assay: as above; details: source organism: Orthohantavirus sinnombreense
HLA-B*46:01 = assay: as above; details: source organism: Orthohantavirus sinnombreense
HLA-B*51:01 = assay: as above; details: source organism: Orthohantavirus sinnombreense
HLA-B*57:01 = assay: as above; details: source organism: Orthohantavirus sinnombreense
HLA-A*03:01 [10] = assay: as above; details: source organism: Bacillus anthracis str. A0488
HLA-A*30:01 = assay: IEDB peptide-MHC binding, purified MHC/competitive/radioactivity; filed as Kd, often an IC50 or EC50 that approximates it; ≥ and ≤ were set here for values at or beyond the usual limits of such assays; details: source organism: Vaccinia virus WR
[11] = source organism: Sudan ebolavirus
[12] = source organism: Dengue virus 2 Jamaica/1409/1983
[13] = source organism: Vaccinia virus Copenhagen
[14] = source organism: Dengue virus 4 Philippines/H241/1956
[15] = source organism: Zaire ebolavirus
[16] = source organism: Vaccinia virus WR

Question: EQFVGTNSI was tested. Which Kd (HLA-B*15:03) did it give?
Answer: 194 nM

Question: Which IC50 (HLA-A*02:01 [1]; [11]) does the source give for FQLNDTIHL here?
Answer: 1520 nM

Question: What about the IC50 (HLA-A*24:02; [11]) of the same sequence?
Answer: 36900 nM

Question: And the IC50 (HLA-B*15:01 [2]; [11])?
Answer: 50500 nM

Question: Which IC50 (HLA-A*02:01 [1]; source organism: Variola virus) does the source give for NYLFGGFST here?
Answer: 23400 nM

Question: And the IC50 (HLA-A*24:02; source organism: Variola virus)?
Answer: 1650 nM

Question: And the IC50 (HLA-B*15:01 [2]; source organism: Variola virus)?
Answer: ≥ 289000 nM

Question: Which Kd (HLA-B*44:02 [3]; [12]) does the source give for MEDKTPVESW here?
Answer: 33.2 nM

Question: And the Kd (HLA-B*44:03; [12])?
Answer: 70.9 nM

Question: With AELTGYGTV as the sequence, how does the Kd (HLA-B*18:01 [4]) read?
Answer: 472 nM

Question: What about the Kd (HLA-B*44:02 [5]) of the same sequence?
Answer: ≥ 20000 nM

Question: Which Kd (HLA-B*15:01 [6]) does the source give for FINMTGNHF here?
Answer: 16.1 nM

Question: And the Kd (HLA-B*15:03)?
Answer: 34.2 nM

Question: SQYANCSSI was tested. Which IC50 (HLA-A*24:02; [13]) did it give?
Answer: ≥ 82700 nM

Question: And the IC50 (HLA-B*15:01 [2]; [13])?
Answer: 7410 nM

Question: Which results are given for GEGLHRLGY?
Answer: Kd (HLA-B*44:02 [3]; [14]): 11.5 nM; Kd (HLA-B*44:03; [14]): 17.6 nM

Question: Which Kd (HLA-B*48:01; source organism: West Nile virus) does the source give for RRLAATTEK here?
Answer: ≥ 20000 nM

Question: How did the Kd (HLA-B*08:01) turn out when SMKTVFQVF was run?
Answer: 179 nM

Question: And the Kd (HLA-B*15:01 [6])?
Answer: 1.57 nM

Question: What about the Kd (HLA-B*15:03) of the same sequence?
Answer: 3.81 nM

Question: For KLHRYIDSM, which Kd (HLA-A*02:01 [7]) is on record?
Answer: 34.2 nM

Question: And the Kd (HLA-A*02:19)?
Answer: ≥ 20000 nM

Question: What about the Kd (HLA-A*03:01 [8]) of the same sequence?
Answer: ≥ 20000 nM

Question: What about the Kd (HLA-A*26:01) of the same sequence?
Answer: ≥ 20000 nM

Question: And the Kd (HLA-B*15:17)?
Answer: ≥ 20000 nM

Question: And the Kd (HLA-B*18:01 [9])?
Answer: ≥ 20000 nM

Question: And the Kd (HLA-B*27:03)?
Answer: ≥ 20000 nM

Question: What about the Kd (HLA-B*39:01) of the same sequence?
Answer: ≥ 20000 nM

Question: What about the Kd (HLA-B*46:01) of the same sequence?
Answer: ≥ 20000 nM

Question: What about the Kd (HLA-B*51:01) of the same sequence?
Answer: ≥ 20000 nM

Question: What about the Kd (HLA-B*57:01) of the same sequence?
Answer: ≥ 20000 nM

Question: With SMFLMTATL as the sequence, how does the IC50 (HLA-B*15:01 [2]; source organism: Variola virus) read?
Answer: 1120 nM

Question: With ELYMYFNHV as the sequence, how does the Kd (HLA-B*08:01) read?
Answer: 238 nM

Question: What about the Kd (HLA-B*15:01 [6]) of the same sequence?
Answer: 1330 nM

Question: What about the Kd (HLA-B*15:03) of the same sequence?
Answer: 414 nM

Question: Which results are given for VVNYEAGEW?
Answer: IC50 (HLA-A*24:02; [15]): ≥ 75500 nM; IC50 (HLA-B*15:01 [2]; [15]): ≥ 119000 nM

Question: LQYVHINEL was tested. Which Kd (HLA-B*15:03) did it give?
Answer: 3.66 nM

Question: Which results are given for VINRLGADL?
Answer: IC50 (HLA-A*02:01 [1]; [16]): ≥ 76600 nM; IC50 (HLA-B*15:01 [2]; [16]): ≥ 105000 nM

Question: For RMLHLSQMH, which Kd (HLA-A*03:01 [10]) is on record?
Answer: 25.8 nM

Question: With WKWFYKKYL as the sequence, how does the Kd (HLA-B*48:01; source organism: Campylobacter jejuni subsp. jejuni HB93-13) read?
Answer: 271 nM

Question: How did the Kd (HLA-B*15:03) turn out when ASTNLGSSF was run?
Answer: 164 nM

Question: With KKVYTFFKF as the sequence, how does the Kd (HLA-B*15:03) read?
Answer: 3.63 nM

Question: For LHHAYQGDY, which IC50 (HLA-B*15:01 [2]; [15]) is on record?
Answer: ≥ 206000 nM

Question: RTRNMFRKK was tested. Which Kd (HLA-A*30:01) did it give?
Answer: 0.0892 nM

Question: What about the Kd (HLA-B*15:03) of the same sequence?
Answer: ≥ 51200 nM

Question: With LEFNTPFVF as the sequence, how does the Kd (HLA-B*15:03) read?
Answer: 10.4 nM
